Laboratory results published in PMC12148038, “Enhancement of CEP215 dynamics for spindle pole assembly during mitosis” (Journal of Cell Science, 2025).

T1: MBP–CEP215^1814-1877 (human, UniProt Q96SN8 1814-1877)
T1 construct: CEP215 (CDK5RAP2), human, residues 1814-1877; source: E. coli Rosetta (DE3) (pET Duet-1 vector), purified (amylose column, SEC)
T1 sequence (looked up): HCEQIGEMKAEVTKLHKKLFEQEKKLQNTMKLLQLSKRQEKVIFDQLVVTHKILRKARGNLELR

B1: MBP–CEP215^1661-1893 (domain or fragment, human, UniProt Q96SN8 1661-1893, looked up)
chain: MESDNSFDLFDSSQAVTPKSVSETPPLSGNDTDSLSCDSGSSATSTPCVSRLVTGHHLWASKNGRHVLGLIEDYEALLKQISQGQRLLAEMDIQTQEAPSSTSQELGTKGPHPAPLSKFVSSVSTAKLTLEEAYRRLKLLWRVSLPEDGQCPLHCEQIGEMKAEVTKLHKKLFEQEKKLQNTMKLLQLSKRQEKVIFDQLVVTHKILRKARGNLELRPGGAHPGTCSPSRPGS
notes: Homodimer by SEC-MALS; calculated monomer mass with MBP 71.8 kDa; also called CEP215 fragment; source: bacterially expressed (pPROEX vector), purified (amylose column, SEC)
B2: PCNT^2350-2450 (domain or fragment, human, UniProt O95613 2350-2450, looked up)
chain: RLSPGSGGPEAQTAGPVTPASISGRFQPLPEAMKEKEVRPKHVKALLQMVRDESHQILALSEGLAPPSGEPHPPRKEDEIQDISLHGGKTQEVPTACPDWR
notes: PCNT (pericentrin), human, residues 2350-2450; Homodimer by SEC-MALS; calculated monomer mass 11.3 kDa, which fits a fragment without MBP; source: bacterially expressed, purified (amylose column, TEV cleavage, anion exchange, SEC)
B3: MBP–PCNT^2388-2420 (domain or fragment, human, UniProt O95613 2388-2420, looked up)
chain: RPKHVKALLQMVRDESHQILALSEGLAPPSGEP
notes: PCNT (pericentrin), human, residues 2388-2420; source: E. coli Rosetta (DE3) (pET Duet-1 vector), purified (amylose column, SEC)

Tests used:
[1] = target: MBP–CEP215^1661-1893 (human) (UniProt Q96SN8); experiment: ITC; 25 µM MBP–CEP215 1661-1893 in the cell, titrated with 250 µM PCNT fragment, 29 injections, 25°C, MicroCal PEAQ-ITC
[2] = target: the molecule itself; experiment: SEC-MALS; each purified protein at 1 to 5 mg/ml on Superdex 200 Increase 5/150 GL with MALS-UV-RI detectors
MBP–CEP215^1814-1877 = target: T1, MBP–CEP215^1814-1877; experiment: SEC; mixture of the two purified proteins, size exclusion chromatography followed by SDS-PAGE of the fractions; conditions: both partners purified

| Molecule | stoichiometry N [2] | other results |
| --- | --- | --- |
| PCNT fragment used in the ITC experiment (from UniProt O95613 2350-2450) (domain or fragment) |  | Kd [1]: 0.164 µM |
| B1 | 2 |  |
| B2 | 2 |  |
| B3 |  | binding result (MBP–CEP215^1814-1877): binds |
